Among the data in publication PMC11931385, “Structural and functional analysis of cancer-associated missense variants in the retinoblastoma protein pocket domain” (The Journal of Biological Chemistry, 2025) are Kd values, retold here.

One experiment has as its target T1, Rb^P K462T (human, UniProt P06400 380-788, K462T).
T1 construct: also called variant 9
T1 sequence (looked up): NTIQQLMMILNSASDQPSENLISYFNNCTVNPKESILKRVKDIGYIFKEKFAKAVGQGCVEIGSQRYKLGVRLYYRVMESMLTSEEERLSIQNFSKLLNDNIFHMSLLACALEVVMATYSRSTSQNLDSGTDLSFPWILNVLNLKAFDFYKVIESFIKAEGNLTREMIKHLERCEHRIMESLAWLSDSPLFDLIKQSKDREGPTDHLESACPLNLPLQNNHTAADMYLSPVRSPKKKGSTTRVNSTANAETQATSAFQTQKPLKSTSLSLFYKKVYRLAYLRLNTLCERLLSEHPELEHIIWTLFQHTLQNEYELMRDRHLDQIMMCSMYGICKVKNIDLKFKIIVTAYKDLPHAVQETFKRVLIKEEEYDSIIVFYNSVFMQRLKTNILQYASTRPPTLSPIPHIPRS
Description: fluorescence polarisation; 37 °C, after the 25 °C reading ramped over 7 min to 37 °C and 2 min incubation; unlabeled Rb^P against 1.5 nM TMR-E2F1^TD or 7.5 nM TMR-E7^LxCxE; 25 mM Tris pH 8.0, 200 mM NaCl, 1 mM DTT, 0.1% Tween-20; apparent Kd. Particulars: both partners purified. Background: Fluorescence polarisation rises when a labelled molecule tumbles more slowly, as on binding a larger partner.

For another experiment, the target named is T2, Rb^P R668C (human, UniProt P06400 380-788, R668C).
T2 construct: also called variant 51
T2 sequence (looked up): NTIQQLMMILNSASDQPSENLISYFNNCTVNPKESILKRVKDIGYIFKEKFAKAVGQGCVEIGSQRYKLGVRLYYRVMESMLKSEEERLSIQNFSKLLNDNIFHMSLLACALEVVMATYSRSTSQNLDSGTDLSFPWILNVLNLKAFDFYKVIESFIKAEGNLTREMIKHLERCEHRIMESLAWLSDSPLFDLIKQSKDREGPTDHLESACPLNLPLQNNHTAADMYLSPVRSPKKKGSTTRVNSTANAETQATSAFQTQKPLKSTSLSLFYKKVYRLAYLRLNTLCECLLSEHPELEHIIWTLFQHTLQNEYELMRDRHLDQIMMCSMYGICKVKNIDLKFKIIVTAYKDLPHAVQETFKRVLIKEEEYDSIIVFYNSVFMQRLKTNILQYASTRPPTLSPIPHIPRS
Described as above. The following applies: both partners purified.

No end group written: not given here. TMR = tetramethyl rhodamine dye

B1: TMR-E2F1^TD, peptide of the E2F1 transactivation domain (peptide)
peptide: {TMR}-GEGIRDLFDCDFGDLTPLD
notes: also called E2F^TD; source: synthetic peptide, bought: GenScript
As for B1, the Kd in the experiment with Rb^P K462T turned out to be 51 nM; in the experiment with Rb^P R668C, 25 nM.

B2: TMR-E7^LxCxE, LxCxE peptide of the E7 oncoprotein from HPV (peptide)
peptide: DLYCYEQLN
modifications: also: TMR label, position not given here
notes: source: synthetic peptide, bought: GenScript
Turning to B2, the Kd in the experiment with Rb^P K462T and with Rb^P R668C was 16 nM throughout.
